The source of these data is the supplement of paper PMC11246515.

A short description of this data set: total protein half-life in vivo (active degradation + dilution); higher = more stable protein.
Setting [1] is: E. coli NCM3722 delta-clpP delta-lon delta-hslV, growth: N-lim chemostat, doubling time 6 h.
Setting [2] is: E. coli NCM3722 delta-clpP, growth: N-lim chemostat, doubling time 6 h.
Setting [3] is: E. coli NCM3722 delta-hslV, growth: N-lim chemostat, doubling time 6 h.
Setting [4] is: E. coli NCM3722 delta-lon, growth: N-lim chemostat, doubling time 6 h.
Where [5] appears, read: E. coli NCM3722 delta-smpB, growth: N-lim chemostat, doubling time 6 h.
Setting [6] is: wild type E. coli NCM3722, growth: C-lim chemostat, doubling time 3 h.
Where [7] appears, read: wild type E. coli NCM3722, growth: C-lim chemostat, doubling time 6 h.
Where [8] appears, read: wild type E. coli NCM3722, growth: C-lim chemostat, doubling time 12 h.
Setting [9] is: wild type E. coli NCM3722, growth: N-lim chemostat, doubling time 6 h.
The mark [10] stands for this setting: wild type E. coli NCM3722, growth: N-lim chemostat, doubling time 12 h.
[11] abbreviates: wild type E. coli NCM3722, growth: P-lim chemostat, doubling time 6 h.
Where [12] appears, read: wild type E. coli NCM3722, growth: P-lim chemostat, doubling time 12 h.

± gives the standard deviation of the averaged measurements.

As to “MLSYRHSFHAGNHADVLKHTVQSLIIESLKEKDKPFLYLDTHAGAGRYQLGSEHAERTGEYLEGIARIWQQDDLPAELEAYINVVKHFNRSGQLRYYPGSPLIARLLLREQDSLQLTELHPSDYPLLRSEFQKDSRARVEKADGFQQLKAKLPPVSRRGLILIDPPYEMKTDYQAVVSGIAEGYKRFATGIYALWYPVVLRQQIKRMIHDLEATGIRKILQIELAVLPDSDRRGMTASGMIVINPPWKLEQQMNNVLPWLHSKLVPAGTGHATVSWIVPE”, the “total protein half-life in vivo” value under setting [1] was 4.85 ± 0.21 h; the “total protein half-life in vivo” value under setting [2] came out at 5.06 ± 0.45 h; the “total protein half-life in vivo” value under setting [3] amounted to 4.81 ± 0.14 h; the “total protein half-life in vivo” value under setting [4] was found to be 4.96 ± 0.05 h; the “total protein half-life in vivo” value under setting [5] came to 4.87 ± 0.07 h; the “total protein half-life in vivo” value under setting [6] was 3.16 ± 0.27 h. For the same sequence, the “total protein half-life in vivo” value came out at 6.11 ± 0.47 h under setting [7]; 10.7 ± 0.25 h under setting [8]; 5.06 ± 0.073 h under setting [9]; 8.35 ± 0.22 h under setting [10]; 6.55 ± 0.2 h under setting [11]; 14 ± 2.8 h under setting [12].
For “MKKLKINYLFIGILALLLAVALWPSIPWFGKADNRIAAIQARGELRVSTIHTPLTYNEINGKPFGLDYELAKQFADYLGVKLKVTVRQNISQLFDDLDNGNADLLAAGLVYNSERVKNYQPGPTYYSVSQQLVYKVGQYRPRTLGNLTAEQLTVAPGHVVVNDLQTLKETKFPELSWKVDDKKGSAELMEDVIEGKLDYTIADSVAISLFQRVHPELAVALDITDEQPVTWFSPLDGDNTLSAALLDFFNEMNEDGTLARIEEKYLGHGDDFDYVDTRTFLRAVDAVLPQLKPLFEKYAEEIDWRLLAAIAYQESHWDAQATSPTGVRGMMMLTKNTAQSLGITDRTDAEQSISGGVRYLQDMMSKVPESVPENERIWFALAAYNMGYAHMLDARALTAKTKGNPDSWADVKQRLPLLSQKPYYSKLTYGYARGHEAYAYVENIRKYQISLVGYLQEKEKQATEAAMQLAQDYPAVSPTELGKEKFPFLSFLSQSSSNYLTHSPSLLFSRKGSEEKQN [P0AGC5]”, the “total protein half-life in vivo” value by setting is: under setting [1], 4.75 h; under setting [9], 1.64 h; under setting [12], 3.13 h.
With “MESLSEGTTAGYQQIHDGIIHLVDSARTETVRSVNALMTATYQEIGRRIVEFEQGGEARAAYGAQLIKRLSKDLCLRYKRGFSAKNLRQMRLFYLFFQHVEIHQTMSGELTPLGIPQTPSAEFPSAKIWQTLSAKSFPLPRSTYVRLLSVKNADARSFYEKETLRCGWSVRQLERQIATQFYERTLLSHDKSAMLQQHAPAETHILPQQAIRDPFVLEFLELKDEYSESDFEEALINHLMDFMLELGDDFAFVGRQRRLRIDDNWFRVDLLFFHRRLRCLLIVDLKVGKFSYSDAGQMNMYLNYAKEHWTLPDENPPIGLVLCAEKGAGEAHYALAGLPNTVLASEYKMQLPDEKRLADELVRTQAVLEEGYRRR”, the “total protein half-life in vivo” value reads like this: under setting [3], 5.34 h; under setting [7], 5.89 h.
As for “MNIQCKRVYDPAEQSDGYRILVDRLWPRGIKKTDLALDEWDKEITPSTELRKAFHGEVVDYATFREQYLAELAQHEQEGKRLADIAKKQPLTLLYSAKNTTQNHALVLADWLRSL”, the “total protein half-life in vivo” value is, setting by setting: under setting [1], 6.74 ± 1.5 h; under setting [2], 5.27 h; under setting [3], 3.16 ± 0.34 h; under setting [4], 4.88 ± 0.48 h; under setting [5], 3.51 ± 0.47 h; under setting [6], 2.37 ± 0.59 h. Moreover, the “total protein half-life in vivo” value under setting [7] amounted to 4.57 h; the “total protein half-life in vivo” value under setting [8] was 4.54 ± 0.79 h; the “total protein half-life in vivo” value under setting [9] stood at 3.27 h; the “total protein half-life in vivo” value under setting [10] was 4.71 h; the “total protein half-life in vivo” value under setting [11] came out at 3.11 h; the “total protein half-life in vivo” value under setting [12] amounted to 5.24 ± 1.4 h.
In the case of “MSDDMSMGLPSSAGEHGVLRSMQEVAMSSQEASKMLRTYNIAWWGNNYYDVNELGHISVCPDPDVPEARVDLAQLVKTREAQGQRLPALFCFPQILQHRLRSINAAFKRARESYGYNGDYFLVYPIKVNQHRRVIESLIHSGEPLGLEAGSKAELMAVLAHAGMTRSVIVCNGYKDREYIRLALIGEKMGHKVYLVIEKMSEIAIVLDEAERLNVVPRLGVRARLASQGSGKWQSSGGEKSKFGLAATQVLQLVETLREAGRLDSLQLLHFHLGSQMANIRDIATGVRESARFYVELHKLGVNIQCFDVGGGLGVDYEGTRSQSDCSVNYGLNEYANNIIWAIGDACEENGLPHPTVITESGRAVTAHHTVLVSNIIGVERNEYTVPTAPAEDAPRALQSMWETWQEMHEPGTRRSLREWLHDSQMDLHDIHIGYSSGIFSLQERAWAEQLYLSMCHEVQKQLDPQNRAHRPIIDELQERMADKMYVNFSLFQSMPDAWGIDQLFPVLPLEGLDQVPERRAVLLDITCDSDGAIDHYIDGDGIATTMPMPEYDPENPPMLGFFMVGAYQEILGNMHNLFGDTEAVDVFVFPDGSVEVELSDEGDTVADMLQYVQLDPKTLLTQFRDQVKKTDLDAELQQQFLEEFEAGLYGYTYLEDE”, the “total protein half-life in vivo” value reads like this: under setting [1], 4.96 ± 0.56 h; under setting [2], 4.38 ± 0.22 h; under setting [3], 4.3 ± 0.57 h; under setting [4], 4.28 ± 0.16 h; under setting [5], 3.97 ± 0.11 h; under setting [6], 2.872 ± 0.017 h. Besides, the “total protein half-life in vivo” value under setting [7] turned out to be 5.43 ± 0.37 h; the “total protein half-life in vivo” value under setting [8] stood at 9.85 ± 0.33 h; the “total protein half-life in vivo” value under setting [9] is 3.93 ± 0.19 h; the “total protein half-life in vivo” value under setting [10] came out at 5.91 ± 0.16 h; the “total protein half-life in vivo” value under setting [11] worked out at 5.54 ± 0.16 h; the “total protein half-life in vivo” value under setting [12] worked out at 11.5 ± 0.38 h.
With “MALYTIGEVALLCDINPVTLRAWQRRYGLLKPQRTDGGHRLFNDADIDRIREIKRWIDNGVQVSKVKMLLSNENVDVQNGWRDQQETLLTYLQSGNLHSLRTWIKERGQDYPAQTLTTHLFIPLRRRLQCQQPTLQALLAILDGVLINYIAICLASARKKQGKDALVVGWNIQDTTRLWLEGWIASQQGWRIDVLAHSLNQLRPELFEGRTLLVWCGENRTSAQQQQLTSWQEQGHDIFPLGI”, the “total protein half-life in vivo” value was determined as 1.79 h under setting [2]; 1.66 h under setting [3]; 3.39 ± 0.71 h under setting [4]; 1.34 ± 0.26 h under setting [5]; 1.64 ± 0.79 h under setting [6]; 3.86 ± 0.76 h under setting [7]. Also, the “total protein half-life in vivo” value by setting is: under setting [8], 4.23 ± 0.31 h; under setting [9], 2.04 h; under setting [10], 2.49 h; under setting [11], 1.98 h; under setting [12], 3.04 ± 0.58 h.
Take “MSSFQFEQIGVIRSPYKEKFAVPRQPGLVKSANGELHLIAPYNQADAVRGLEAFSHLWILFVFHQTMEGGWRPTVRPPRLGGNARMGVFATRSTFRPNPIGMSLVELKEVVCHKDSVILKLGSLDLVDGTPVVDIKPYLPFAESLPDASASYAQSAPAAEMAVSFTAEVEKQLLTLEKRYPQLTLFIREVLAQDPRPAYRKGEETGKTYAVWLHDFNVRWRVTDAGFEVFALEPR”: the “total protein half-life in vivo” value under setting [1] was 5 ± 0.19 h; the “total protein half-life in vivo” value under setting [2] was 4.77 ± 0.35 h; the “total protein half-life in vivo” value under setting [3] came out at 4.77 ± 0.049 h; the “total protein half-life in vivo” value under setting [4] is 5.29 ± 0.31 h; the “total protein half-life in vivo” value under setting [5] is 5.06 ± 0.3 h; the “total protein half-life in vivo” value under setting [6] came to 2.89 ± 0.41 h. Besides, the “total protein half-life in vivo” value is 5.88 ± 0.54 h under setting [7]; 9.48 ± 0.38 h under setting [8]; 4.98 ± 0.3 h under setting [9]; 10.1 ± 2.3 h under setting [10]; 6.19 ± 0.56 h under setting [11]; 13.5 ± 1.7 h under setting [12].
